Reference: EP4163303A1, “SYNTHETIC MULTI-EPITOPE CHIMERA AS A VACCINE AND TREATMENT FOR LEI[…] MAMMALS” (Universidad Complutense De Madrid, priority 2020, dated 2021)

Assays:
L. infantum = experiment: Protection against L. infantum in the murine model of visceral leishmaniasis; type: in vivo, mice; details: 6 weeks after i.v. infection with 5×10^5 L. infantum promastigotes; versus Saponin and PBS groups
Experimental: (§1) To assess the immunogenicity of the synthetic multi-epitope chimera characterised by SEQ ID NO: 5, inoculations were performed subcutaneously in three groups of mice (n=8/group). The animals of one group, referred to as Seq5, were inoculated with 50 µg of the synthetic chimera characterised by SEQ ID NO: 5 and 25 µg of saponin, as an adjuvant; the animals of another group, saponin control group, were inoculated with 25 µg of saponin; and the PBS control group was inoculated with PBS (buffer in which both the synthetic multi-epitope chimera characterised by SEQ ID NO: 5 and the adjuvant were transported). The inoculation was carried out on the left rear plantar pad on days 60, 45 and 30, with respect to day zero of infection, with a total volume of 50 µl.
30 days after the last immunisation carried out as described in example 3, an infection was intravenously performed with 5×10^5 infective L. infantum promastigotes in the 3 groups of animals (which we have named Seq5, Saponin and PBS). 6 weeks after infection, the animals were euthanised and the parasite load in the VL target organs was assessed. The parasite count was carried out by decimal dilutions of spleen and liver macerates, separately, and their subsequent observation under a microscope. […]

[1] = test system: BMDCs infected with L. infantum; experiment: Leishmanicidal activity in L. infantum infected BMDCs co-cultured with splenocytes of immunised animals; type: cell-based, mice; details: 24 and 72 hours of postinfection incubation; versus Saponin and PBS control groups
Experimental: as §1
The leishmanicidal activity of the chimera characterised by SEQ ID NO: 5 (indicated in the figure as Seq5) was assessed in BMDC. Virgin BMDCs infected with L. infantum were co-cultured with splenocytes from animals previously immunised with the chimera characterised by SEQ ID NO: 5 as indicated in example 3, and with splenocytes from animals previously inoculated with the two controls used according to example 5. The parameters of infected cells and number of intracellular amastigotes were determined by optical microscopy. The data are presented as the mean ± SD. […]

[2] = Immunogenicity in immunised mice: cytokine ELISA in BMDC/splenocyte co-cultures and humoral response; type: in vivo
Experimental: as §1
The displacement of the immune response in the group immunised with the chimera characterised by SEQ ID NO: 5 correlates with increased leishmanicidal activity in target cells infected with Leishmania.
Use was made of virgin bone marrow-derived dendritic cells (BMDC) stimulated with soluble Leishmania antigen (SLA; produced with the supernatants obtained after having lysed cultures of Leishmania promastigotes obtained after sonication and subsequent centrifugation), grey bars; or stimulated with the chimera characterised by SEQ ID NO: 5, white bars; unstimulated BMDC was used as negative control, indicated as N-E with black bars. The BMDCs were co-cultured with spleen cells, splenocytes, of the animals previously immunised as indicated in example 3. Cytokine production (pg/ml) was quantified using the ELISA technique. The data are presented as the mean ± standard deviation (SD). The hash marks indicate statistically significant differences (#, P < 0.05; ##, P <0.001) between the immunised groups and the two control groups (Saponin and PBS). The asterisk indicates statistically significant differences (*, P < 0.05; **, P < 0.001).

[3] = splenocytes of immunised mice co-cultured with BMDC stimulated with the chimera or SLA, ELISA, versus Saponin and PBS controls

B1: … RFQSSAIMALQEITRGCVRRMARRGGVK (peptide)
chain: TAVLEYLTAELLELSRSLKAINAQMSMSHRTMKIVNSYVEGLRFQSSAIMALQEITRGCVRRMARRGGVK
modifications: Multi-epitopic chimera consisting of SEQ ID NO: 1, 2, 3 and 4 from Leishmania infantum
L. infantum
  parasite load in the liver (H): lower parasite load
  parasite load in the spleen (B): lower parasite load
[1]
  number of intracellular amastigotes detected per cell (No./BMDC): lower number
  percentage of infected target cells (% BMDC): notable reduction
[2]; mice immunised s.c. with 50 µg chimera and 25 µg saponin
  specific humoral response against the synthetic multi-epitope chimera (isotype): redirection of the specific humoral response against the synthetic multi-epitope chimera to the IgG2a isotype
[2]; mice immunised s.c. with 50 µg chimera and 25 µg saponin, versus Saponin and PBS controls
  immune response profile: protective Th1 cell response profile
[2]; [3]
  production of IFN-γ: greater amount
  production of IL-12: greater amount
